Measured values from PMC10397247.

Key:
4H1072-bN = biological target: T1, 4H1072-bN; test: two-hybrid library CCNG1;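 note: natural log of median RNA to DNA barcode read ratio; higher means stronger binding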
T1 chain: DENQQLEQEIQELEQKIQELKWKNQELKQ

4H1193-bN = biological target: T2, 4H1193-bN; test: two-hybrid library CCNG1;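 note: natural log of median RNA to DNA barcode read ratio; higher means stronger binding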
T2 chain: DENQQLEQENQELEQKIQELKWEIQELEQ

4H1387-bN = biological target: T3, 4H1387-bN; test: two-hybrid library CCNG1;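 note: natural log of median RNA to DNA barcode read ratio; higher means stronger binding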
T3 chain: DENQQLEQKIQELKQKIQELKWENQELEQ

4H1406-bN = biological target: T4, 4H1406-bN; test: two-hybrid library CCNG1;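 note: natural log of median RNA to DNA barcode read ratio; higher means stronger binding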
T4 chain: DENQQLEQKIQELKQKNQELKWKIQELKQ

4H2568-bN = biological target: T5, 4H2568-bN; test: two-hybrid library CCNG1;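 note: natural log of median RNA to DNA barcode read ratio; higher means stronger binding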
T5 chain: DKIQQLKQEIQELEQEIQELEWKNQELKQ

4H2619-bN = biological target: T6, 4H2619-bN; test: two-hybrid library CCNG1;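 note: natural log of median RNA to DNA barcode read ratio; higher means stronger binding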
T6 chain: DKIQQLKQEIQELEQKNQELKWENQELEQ

4H2745-bN = biological target: T7, 4H2745-bN; test: two-hybrid library CCNG1
T7 chain: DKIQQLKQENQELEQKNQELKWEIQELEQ

4H344-bN = biological target: T8, 4H344-bN; test: two-hybrid library CCNG1
T8 chain: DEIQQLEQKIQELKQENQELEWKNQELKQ

4H3592-bN = biological target: T9, 4H3592-bN; test: two-hybrid library CCNG1
T9 chain: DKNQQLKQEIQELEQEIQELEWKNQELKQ

4H3601-bN = biological target: T10, 4H3601-bN; test: two-hybrid library CCNG1
T10 chain: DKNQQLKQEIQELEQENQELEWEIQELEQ

4H363-bN = biological target: T11, 4H363-bN; test: two-hybrid library CCNG1
T11 chain: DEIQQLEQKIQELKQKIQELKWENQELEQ

4H3907-bN = biological target: T12, 4H3907-bN; test: two-hybrid library CCNG1
T12 chain: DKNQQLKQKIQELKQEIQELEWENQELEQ

4H3961-bN = biological target: T13, 4H3961-bN; test: two-hybrid library CCNG1
T13 chain: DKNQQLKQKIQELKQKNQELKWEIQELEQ

4H4038-bN = biological target: T14, 4H4038-bN; test: two-hybrid library CCNG1
T14 chain: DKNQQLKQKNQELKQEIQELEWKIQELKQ

4H470-bN = biological target: T15, 4H470-bN; test: two-hybrid library CCNG1
T15 chain: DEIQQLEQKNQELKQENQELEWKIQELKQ

4H465-AA = biological target: T16, 4H465-AA; test: two-hybrid library CCmax
T16 chain: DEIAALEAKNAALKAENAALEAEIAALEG

4H486-AA = biological target: T17, 4H486-AA; test: two-hybrid library CCmax; conditions: mean of both orientations
T17 chain: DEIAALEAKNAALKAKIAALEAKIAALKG

4H535-AA = biological target: T18, 4H535-AA; test: two-hybrid library CCmax; conditions: mean of both orientations
T18 chain: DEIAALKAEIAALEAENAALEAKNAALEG

4H58-AA = biological target: T19, 4H58-AA; test: two-hybrid library CCmax; conditions: mean of both orientations
T19 chain: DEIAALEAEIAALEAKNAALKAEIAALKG

4H895-AA = biological target: T20, 4H895-AA; test: two-hybrid library CCmax; conditions: mean of both orientations
T20 chain: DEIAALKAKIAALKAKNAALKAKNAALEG

4H_APH = biological target: T21, 4H_APH; test: two-hybrid library CCmax
T21 chain: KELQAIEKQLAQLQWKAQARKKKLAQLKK

4H_BCR = biological target: T22, 4H_BCR; test: two-hybrid library CCmax; conditions: mean of both orientations
T22 chain: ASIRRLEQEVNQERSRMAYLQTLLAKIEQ

4H_GCN4 = test: two-hybrid library CCmax
4H_GCN4, sequence (chain, as listed by the source): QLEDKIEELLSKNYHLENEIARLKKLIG

GCN2_T = test: two-hybrid library CCmax
P2-AA-1HGe-A = biological target: T23, P2-AA-1HGe-A; test: two-hybrid library CCmax; conditions: mean of both orientations
T23 chain: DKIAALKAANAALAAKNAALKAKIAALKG

P2-AA-1HGe-D = biological target: T24, P2-AA-1HGe-D; test: two-hybrid library CCmax; conditions: mean of both orientations
T24 chain: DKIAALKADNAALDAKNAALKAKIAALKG

P2-AA-1HGe-H = biological target: T25, P2-AA-1HGe-H; test: two-hybrid library CCmax; conditions: mean of both orientations
T25 chain: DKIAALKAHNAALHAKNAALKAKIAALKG

P2-AA-1HGe-M = biological target: T26, P2-AA-1HGe-M; test: two-hybrid library CCmax; conditions: mean of both orientations
T26 chain: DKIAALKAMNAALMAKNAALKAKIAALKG

P2-AA-1HGe-Q = biological target: T27, P2-AA-1HGe-Q; test: two-hybrid library CCmax; conditions: mean of both orientations
T27 chain: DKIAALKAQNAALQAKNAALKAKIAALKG

P2-AA-1HGe-T = biological target: T28, P2-AA-1HGe-T; test: two-hybrid library CCmax; conditions: mean of both orientations
T28 chain: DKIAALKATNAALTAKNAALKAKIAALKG

P2-AA = biological target: T29, P2-AA; test: two-hybrid library CCmax; conditions: mean of both orientations
T29 chain: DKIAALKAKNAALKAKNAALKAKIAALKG

4H1359-bH = biological target: T30, 4H1359-bH; test: two-hybrid library CCNG1
T30 chain: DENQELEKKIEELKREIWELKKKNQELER

4H1393-bH = biological target: T31, 4H1393-bH; test: two-hybrid library CCNG1
T31 chain: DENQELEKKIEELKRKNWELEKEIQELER

4H1449-bH = biological target: T32, 4H1449-bH; test: two-hybrid library CCNG1
T32 chain: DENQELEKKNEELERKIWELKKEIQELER

4H1629-bH = biological target: T33, 4H1629-bH; test: two-hybrid library CCNG1
T33 chain: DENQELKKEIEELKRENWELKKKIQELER

4H1710-bH = biological target: T34, 4H1710-bH; test: two-hybrid library CCNG1
T34 chain: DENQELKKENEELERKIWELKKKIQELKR

4H1804-bH = biological target: T35, 4H1804-bH; test: two-hybrid library CCNG1
T35 chain: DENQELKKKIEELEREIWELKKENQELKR

4H1985-bH = biological target: T36, 4H1985-bH; test: two-hybrid library CCNG1
T36 chain: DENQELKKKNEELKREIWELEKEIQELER

4H3129-bH = biological target: T37, 4H3129-bH; test: two-hybrid library CCNG1
T37 chain: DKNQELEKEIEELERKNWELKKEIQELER

4H3172-bH = biological target: T38, 4H3172-bH; test: two-hybrid library CCNG1
T38 chain: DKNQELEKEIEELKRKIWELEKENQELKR

4H3414-bH = biological target: T39, 4H3414-bH; test: two-hybrid library CCNG1
T39 chain: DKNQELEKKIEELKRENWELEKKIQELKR

4H3631-bH = biological target: T40, 4H3631-bH; test: two-hybrid library CCNG1
T40 chain: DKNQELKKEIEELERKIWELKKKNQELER

4H3638-bH = biological target: T41, 4H3638-bH; test: two-hybrid library CCNG1
T41 chain: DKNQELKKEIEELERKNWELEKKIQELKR

4H3817-bH = biological target: T42, 4H3817-bH; test: two-hybrid library CCNG1
T42 chain: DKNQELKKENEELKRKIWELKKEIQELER

4H3974-bH = biological target: T43, 4H3974-bH; test: two-hybrid library CCNG1
T43 chain: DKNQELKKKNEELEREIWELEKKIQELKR

4H570-bH = biological target: T44, 4H570-bH; test: two-hybrid library CCNG1
T44 chain: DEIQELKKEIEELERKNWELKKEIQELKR

4H584-bH = biological target: T45, 4H584-bH; test: two-hybrid library CCNG1
T45 chain: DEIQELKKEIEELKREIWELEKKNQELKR

4H619-bH = biological target: T46, 4H619-bH; test: two-hybrid library CCNG1
T46 chain: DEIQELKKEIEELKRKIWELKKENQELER

4H850-bH = biological target: T47, 4H850-bH; test: two-hybrid library CCNG1
T47 chain: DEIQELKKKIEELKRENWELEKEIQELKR

4H906-bH = biological target: T48, 4H906-bH; test: two-hybrid library CCNG1
T48 chain: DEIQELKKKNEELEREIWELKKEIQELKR

4H932-bN = biological target: T49, 4H932-bN; test: two-hybrid library CCNG1
T49 chain: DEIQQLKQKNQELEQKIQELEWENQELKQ

Binder: DENQQLEQEIQELEQKIQELKWKNQELKQ [4H1072-bN]
- interaction score (4H1072-bN): 0.692
- interaction score (4H1193-bN): -0.235
- interaction score (4H1387-bN): 0.922
- interaction score (4H1406-bN): -0.693
- interaction score (4H2568-bN): -0.182
- interaction score (4H2619-bN): 0.775
- interaction score (4H2745-bN): -0.0701
- interaction score (4H344-bN): -0.983
- interaction score (4H3592-bN): 0.235
- interaction score (4H3601-bN): -0.0449
- interaction score (4H363-bN): 1.58
- interaction score (4H3907-bN): 1.91
- interaction score (4H3961-bN): 0.231
- interaction score (4H4038-bN): 0.389
- interaction score (4H470-bN): 0.0488

Binder: DEIAALEAKNAALKAENAALEAEIAALEG [4H465-AA]
- interaction score (4H465-AA): -1.82
- interaction score (4H486-AA): -1.47
- interaction score (4H535-AA): -1.58
- interaction score (4H58-AA): 0.877
- interaction score (4H895-AA): -1.13
- interaction score (4H_APH): -1.84
- interaction score (4H_BCR): -1.2
- interaction score (4H_GCN4): -2.34
- interaction score (GCN2_T): -1.97
- interaction score (P2-AA-1HGe-A): 1.85
- interaction score (P2-AA-1HGe-D): 1.36
- interaction score (P2-AA-1HGe-H): 1.53
- interaction score (P2-AA-1HGe-M): 1.47
- interaction score (P2-AA-1HGe-Q): 1.82
- interaction score (P2-AA-1HGe-T): 2.11
- interaction score (P2-AA): 1.61

Binder: DENQELEKKIEELKREIWELKKKNQELER [4H1359-bH]
- interaction score (4H1359-bH): 0.989
- interaction score (4H1393-bH): -0.756
- interaction score (4H1449-bH): 0.00778
- interaction score (4H1629-bH): -0.6
- interaction score (4H1710-bH): -0.389
- interaction score (4H1804-bH): 0.574
- interaction score (4H1985-bH): 0.67
- interaction score (4H3129-bH): -0.249
- interaction score (4H3172-bH): -0.46
- interaction score (4H3414-bH): -0.291
- interaction score (4H3631-bH): 0.884
- interaction score (4H3638-bH): -0.989
- interaction score (4H3817-bH): 0.0285
- interaction score (4H3974-bH): 0.477
- interaction score (4H570-bH): -1.09
- interaction score (4H584-bH): 0.303
- interaction score (4H619-bH): -0.165
- interaction score (4H850-bH): -0.848
- interaction score (4H906-bH): 0.0222
- interaction score (4H932-bN): -1.75
